Reference: US20060286117A1, “Neuronally expressed stem cell factor modulates angiogenesis and neural stem cell migration to areas of brain injury” (priority 2003, published 2006)
“Also recorded” adds a separate entry of the source.

Columns and labels:
SCID mice [1] = assay: In vivo angiogenesis assay, matrigel plug with rmSCF (Example 3); parameters: species or system mouse; details: rmSCF 50 ng/ml, subcutaneous, 7 days, vs PBS control
Procedure: Recombinant mouse SCF (rmSCF) was used at 50 ng/ml in an in vivo angiogenesis assay. The matrigel plug containing SCF or PBS control was placed subcutaneously in SCID mice for 7 days, and the blood vessel formation within the gel was examined by H&E staining. […] In the higher magnification figure on the right side, the red blood cells inside of the newly formed vessel are indicated by an arrow.

BMVEC-b = assay: Thymidine incorporation in BMVEC-b exposed to SCF; format: cell-based, bovine; details: basal medium
Procedure: (§1) After ECs (3×10^3/well) were adhered to 96-well gelatin-coated plates (BD Discovery Labware, Bedford, Mass.), the EC growth medium was replaced by SCF ([…]) (R&D Systems, Minneapolis, Minn.) suspended in treatment medium (basal medium with 0.1% BSA) for an additional 48 hr (HUVEC and HMVEC-d) or 72 hr (BMVEC-b) with renewal of medium at 24 hr intervals. ECs were cultured for 4 hr in 0.25 μCi of [^3H]thymidine (Amersham Pharmacia Biotech, Piscataway, N.J.) at the end. High molecular mass [^3H]-radioactivity was precipitated and counted.

glioma cells = assay: Glioma cell proliferation in vitro with SCF; format: cell-based, human; details: even high concentrations of SCF
HMVEC-d = assay: Thymidine incorporation in HMVEC-d exposed to SCF; format: cell-based, human; details: basal medium, 48 hr
Procedure: as §1

SCID mice [2] = assay: In vivo angiogenesis assay, subcutaneous Matrigel plugs with SCF or β-FGF; parameters: species or system mouse; details: subcutaneous Matrigel in adult SCID mice, fourteen days after injection
Procedure: (§2) Confluent-grown ECs were treated with 50 ng/ml of SCF for 5, 10, 15, and 30 min after 24 hr of serum starvation. The ECs were collected with RIPA lysis buffer (Upstate, Charlottesville, Va.) containing 50 mM NaF, 1 mM Na3VO4, […], and Protease Inhibitor Cocktail (Roche). The antibodies were purchased from Cell Signaling Technology, Inc. (Beverly, Mass.) or as mentioned otherwise. All the primary antibodies were used in a 1:1000 dilution except for the anti-SCF antibody, which was used in a 1:2000 dilution. The primary antibodies were anti-phospho-c-Kit, anti-phospho-MEK1/2 and anti-MEK1/2, anti-phospho-p44/42 MAPK and anti-p44/42 MAPK, anti-phospho-SAPK/JNK and anti-SAPK/JNK, anti-phospho-p38 MAPK and anti-p38 MAPK, anti-phospho-Akt and anti-Akt, anti-phospho-mTOR and anti-mTOR, anti-phospho-4E-BP1 and anti-4E-BP1, anti-SCF and anti-VEGF (Chemicon, Temecula, Calif.), and anti-β-tubulin (Sigma). Re-blotting was done after membranes were stripped by re-blot kit (Chemicon). Tie2 detection in Matrigel plugs from the in vivo Matrigel assay was carried out by immunoprecipitation and immunoblotting. The gel plugs were carefully separated from muscle and skin and homogenized with RIPA lysis buffer. The resulting total tissue lysates ([…]) were immunoprecipitated with Tie2 antibody (Santa Cruz Biotechnology, Inc., Santa Cruz, Calif.) and then analyzed by immunoblot with Tie2 antibody (Zadeh et al. 2004 Am J Pathol 162:467-476).
All adult mice (6-8 weeks of age) were from NCI-Fredrick, and the animal experiments were conducted on an animal experimentation protocol approved by the NCI's animal protection committee (the “ACUC”). […]

HUVEC = assay: Thymidine incorporation in HUVEC exposed to SCF; format: cell-based, human; details: basal medium, 48 hr
Procedure: as §1

[3] = system: c-Kit, MAPK and PI3K/Akt pathways in BMVEC-b; assay: Immunoblot of SCF/c-Kit signal transduction, BMVEC-b; format: cell-based, bovine
Procedure: as §2

bMVEC-B cells = assay: bMVEC-B tube formation on matrigel (Example 3); format: cell-based; details: vs SCF-absent control
Text: Endothelial cell tube formation on extracellular matrix (ECM) is a commonly used in vitro model of EC differentiation and angiogenesis. We examined the SCF effects on the bMVEC-B cell tube formation.

[4] = SCF 50 ng/ml after serum starvation

B1: SCF: Stem cell factor protein (R&D Systems), ligand of the c-Kit receptor (protein)
chain: KEICGNPVTDNVKDITKLVANLPNDYMITLNYVAGMDVLPSHCWLRDMVIQLSLSLTTLLDKFSNISEGLSNYSIIDKLGKIVDDLVLCMEENAPKNIKESPKRPETRSFTPEEFFSIFNRSIDAFKDFMVASDTSDCVLSSTLGPEKDSRVSVTKPFMLPPVA
SCID mice [1]
  blood vessel formation within the matrigel plug (H&E): stimulates angiogenesis
BMVEC-b; 1 ng of SCF per ml for 72 hr
  BMVEC-b proliferation increase (thymidine incorporation): approximately 6 fold
BMVEC-b; 10 ng of SCF per ml for 72 hr
  BMVEC-b proliferation increase (thymidine incorporation): ~7 fold
BMVEC-b; BMVEC-b, 72 hr
  proliferation (thymidine incorporation): stimulated proliferation in all three primary ECs in a dose-dependent manner
Glioma cells
  glioma cell proliferation: failed to induce proliferation
HMVEC-d
  proliferation (thymidine incorporation): stimulated proliferation in all three primary ECs in a dose-dependent manner
SCID mice [2]
  Tie2 protein in Matrigel plug: high Tie2 expression
  angiogenesis in Matrigel plug (H&E, vWF-positive vessels): high density of blood vessels; also recorded: induced substantial angiogenesis
HUVEC
  proliferation (thymidine incorporation): stimulated proliferation in all three primary ECs in a dose-dependent manner
[3]; SCF 50 ng/ml
  duration of p38 MAPK activation: over 30 min
  phosphorylation of 4E-BP1: increased phosphorylation of 4E-BP1
  phosphorylation of Akt: significantly enhanced
  phosphorylation of MEK1/2: dramatically increased
  phosphorylation of p44/42 MAPK: dramatically increased
  time of SAPK/JNK activation following SCF exposure: 10 to 15 min
[3]; [4]
  duration of c-Kit auto-tyrosine-phosphorylation: 30 min
  time of peak c-Kit auto-tyrosine-phosphorylation: 10 to 15 min
bMVEC-B cells
  bMVEC-B tube formation on matrigel: enhanced bMVEC-B cell tube formation; also recorded: at much earlier time point and more completely
